Measurements: US20220281976A1 (Alector, published 2022)

T1: mouse CD33 Fc fusion protein (mouse, UniProt Q63994 18-240, limits assumed)
T1 construct: also called mCD33-Fc
T1 sequence: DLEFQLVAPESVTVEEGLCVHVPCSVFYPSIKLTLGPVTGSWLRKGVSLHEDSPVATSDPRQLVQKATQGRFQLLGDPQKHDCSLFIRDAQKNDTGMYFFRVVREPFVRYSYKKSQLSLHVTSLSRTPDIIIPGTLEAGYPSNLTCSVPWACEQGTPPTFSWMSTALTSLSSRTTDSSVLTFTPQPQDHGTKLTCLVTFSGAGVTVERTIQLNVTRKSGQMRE


Experiments:
[1] = target: T2, human monomeric His tagged CD33 protein (human, UniProt P20138 18-259); experiment: ForteBio BLI or MSD-SET, IgG, monomeric antigen;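 note: BLI: antibodies captured on AHQ sensors, 100 nM antigen association 5 min, dissociation 5 min, 1:1 fit. MSD-SET: antigen fixed at 50 pM, antibody titrated, quadratic fit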
T2 construct: also called hCD33-His
T2 sequence (P20138 18-259 limits assumed): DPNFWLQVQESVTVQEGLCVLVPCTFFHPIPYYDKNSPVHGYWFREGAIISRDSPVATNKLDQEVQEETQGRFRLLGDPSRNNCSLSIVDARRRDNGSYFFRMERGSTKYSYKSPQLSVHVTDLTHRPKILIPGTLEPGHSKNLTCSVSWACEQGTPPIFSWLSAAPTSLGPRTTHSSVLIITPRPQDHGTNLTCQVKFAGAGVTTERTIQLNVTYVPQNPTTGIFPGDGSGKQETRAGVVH

[2] = target: T3, human CD33 (human, UniProt P20138 18-364); experiment: flow cytometry, human primary monocytes; design: reference not given here;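 note: binding of anti-CD33 antibodies at 10 ug/ml to human primary monocytes, 1 h on ice, detected by PE-labelled secondary antibody, flow cytometry readout as mean fluorescence intensity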
T3 construct: CD33 on human primary dendritic cells, macrophages, monocytes and T cells and on CHO cells expressing recombinant human CD33; also called Siglec-3; hCD33
T3 sequence (P20138 18-364): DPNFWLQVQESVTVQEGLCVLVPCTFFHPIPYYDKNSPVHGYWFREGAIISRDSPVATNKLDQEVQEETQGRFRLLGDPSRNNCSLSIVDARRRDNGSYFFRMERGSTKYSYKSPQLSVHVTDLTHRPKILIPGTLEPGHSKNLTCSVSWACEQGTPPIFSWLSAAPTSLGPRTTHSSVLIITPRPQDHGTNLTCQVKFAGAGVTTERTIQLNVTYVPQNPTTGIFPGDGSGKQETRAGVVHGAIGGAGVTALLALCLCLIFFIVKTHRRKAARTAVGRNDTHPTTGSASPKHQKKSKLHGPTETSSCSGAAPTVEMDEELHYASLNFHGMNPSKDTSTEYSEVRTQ

[3] = target: T1, mouse CD33 Fc fusion protein; experiment: ForteBio BLI or MSD-SET
[4] = target: T4, human CD33 Fc fusion protein (human, UniProt P20138 18-259); experiment: ForteBio BLI or MSD-SET, IgG, avid;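 note: Anti-CD33 IgG affinity by BLI, IgG captured on AHQ sensors with antigen in solution and a one-to-one kinetic fit, or by MSD solution equilibrium titration with quadratic fit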
T4 construct: also called hCD33-Fc; human CD33/Fc chimera (R&D Systems)
T4 sequence (P20138 18-259 limits assumed): as the sequence (P20138 18-259 limits assumed) above

[5] = target: T4, human CD33 Fc fusion protein; experiment: RBC adhesion to plate-bound CD33-Fc; antibody 1.0 ug/ml;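 note: red blood cells adhering to plate-coated CD33-Fc after 1 h antibody pretreatment, then 1 h at room temperature, bound cells read as peroxidase activity after lysis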
[6] = target: T3, human CD33; experiment: flow cytometry, human primary macrophages;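 note: binding of CD33 antibodies at 10 µg/ml to human primary macrophages, 1 h on ice, detected with PE-labelled secondary antibody by flow cytometry, reported as MFI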
Protocol: Initial characterization of CD33 antibodies involved determining their ability to bind CD33 expressed on a CHO cell line, on human primary monocytes, human primary macrophages, human primary dendritic cells, and on human primary T cells. Cells were harvested, plated at 10⁶/ml in a 96 well plate, and incubated in 100 ul PBS containing 2% FBS, 2 mM EDTA and 10 ug/ml Mab and Fc blocking reagent for 1 hour in ice. Cells were washed twice and incubated in 100 ul PBS containing 2% FBS, 2 mM EDTA and 5 ug/ml PE-conjugated secondary antibody for 30 minutes on ice. Cells were washed twice in cold PBS and analyze by flow cytometry on a BD FACS Canto. Data analysis and calculation of MFI values was performed with FlowJo (TreeStar) software version 10.0.7.

[7] = target: T3, human CD33; experiment: flow cytometry, human primary T cells;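 note: binding of anti-CD33 antibodies at 10 ug/ml to human primary T cells, 1 h on ice, detected with PE-labelled secondary antibody, read as flow cytometry MFI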
[8] = target: T3, human CD33; experiment: cell-based or functional assay
[9] = target: T3, human CD33; experiment: flow cytometry, human primary dendritic cells;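 note: binding of anti-CD33 antibodies (10 ug/ml, 1 h on ice) to human primary dendritic cells, detected with a PE-labelled secondary antibody, reported as flow cytometry MFI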
[10] = target: T4, human CD33 Fc fusion protein; experiment: RBC adhesion to plate-bound CD33-Fc; antibody 0.5 ug/ml;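 note: Plate-coated CD33-Fc preincubated 1 h with antibody, then red blood cells added for 1 h at room temperature, adherent cells lysed and quantified via peroxidase activity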
Protocol: Briefly, 5 ug/ml CD33-Fc was coated overnight at RT in 96 well Immunolon plates, then washed with PBS, blocked for one hour with binding buffer (PBS containing %0.25 BSA 1 mM CaCl₂). CD33 antibodies (0.5 ug/ml or 1.0 ug/ml) or Fabs (25 ug/ml) were bound for one hour at RT with gentle rocking. After removal of unbound antibody, red blood cells were added to each well at a concentration of 3.0×10⁶ cells per ml and incubated at RT for one hour. Unbound RBCs were then carefully washed off 3× with PBS, and water was added to each well for hypotonic lysis of bound RBCs. The plate was transferred to −80° C. for 10 minutes, followed by 37° C. for 15 minutes. Bound RBCs were detected by peroxidase activity, followed by 2N sulfuric acid to stop the reaction.

| Binder | Kd [1] [nM] | Monocyte MFI [2] | binding result [3] | Kd [4] [nM] | Percent RBC Binding to CD33 [5] [%] | Macrophage MFI [6] | T cell MFI [7] | Percent CD33 Surface Expression, DC % CD33 [8] [%] | Percent CD33 Surface Expression, Macrophage % CD33 [8] [%] | Percent CD33 Surface Expression, Monocyte % CD33 [8] [%] | DC MFI [9] | Percent RBC Binding to CD33 [10] [%] |
| --- | --- | --- | --- | --- | --- | --- | --- | --- | --- | --- | --- | --- |
| C-87 (antibody, V domains shown, human IgG1) VH: QLQLQESGPGLVKPSETLSLTCTVSGGSISSSSYAWGWIRQPPGKGLEWIGSIYYSGSTYYNPSLKSRVTISVDTSKNQFSLKLSSVTAADTAVYYCARDPLYPLTPYGMDVWGQGTTVTVSS VL: EIVMTQSPATLSLSPGERATLSCRASQSVSSYLAWYQQKPGQAPRLLIYDASNRATGIPARFSGSGSGTDFTLTISSLEPEDFAVYYCQQLSVFPPTFGGGTKVEIK | 7.04 | 971 | no binding (tested: 100 nM) | 1.93 | 9.5 | 1260 | 246 | 28.4 | 47.5 | 36.1 | 172 | 29.4 |
| C-84 (antibody, V domains shown, human IgG1) VH: not shown VL: DIQMTQSPSTLSASVGDRVTITCRASQSISSWLAWYQQKPGKAPKLLIYDASSLESGVPSRFSGSGSGTEFTLTISSLQPDDFATYYCQQVNRYPFTFGGGTKVEIK | 62.6 | 532 | no binding (tested: 100 nM) | 7.39 | 103 | 313 | 95.8 | 75.9 |  | 90.4 | 55 | 96.8 |
| C-72 (antibody, V domains shown, human IgG1) VH: QVQLVESGGGVVQPGRSLRLSCAASGFTFSSYGMHWVRQAPGKGLEWVAVIWYDGSNKYYADSVKGRFTISRDNSKNTLYLQMNSLRAEDTAVYYCAKEGGTYSDDFDLWGGGTLVTVSS VL: DIQMTQSPSSVSASVGDRVTITCRASQGISSWLAWYQQKPGKAPKLLIYAASSLQSGVPSRFSGSGSGTDFTLTISSLQPEDFATYYCQQASSFPLTFGGGTKVEIK | 7.7 | 118 | no binding (tested: 100 nM) | 1.77 | 18.9 | 657 | 330 | 43.4 | 47.5 | 41.8 | 742 | 36.2 |
| C-79 (antibody, V domains shown, human IgG1) VH: QVQLVQSGAEVKKPGASVKVSCKASGYTFTSYYIHWVRQAPGQGLEWMGIINPSGGSTSYAQKFQGRVTMTRDTSTSTVYMELSSLRSEDTAVYYCARVSRQQHSMDVWGQGTTVTVSS VL: not shown | 11.2 | 815 | no binding (tested: 100 nM) | 2.28 | 83.5 | 654 | 228 | 83.1 |  | 91.1 | 43 | 45.7 |
| C-77 (antibody, V domains shown, human IgG1) VH: not shown VL: DIVLTQSPDSLAVSLGERATINCKSSQSVLYSSNNKNYLAWYQQKPGQAPRLLIYGASSRATGIPDRFSGSGSGTDFTLTISRLEPEDFAVYYCQQDYVSPLTFGGGTKVEIK | 11.1 | 698 | no binding (tested: 100 nM) | 2.15 | 77.7 | 493 | 263 | 84.2 |  | 87.6 | 43 | 61.4 |
| C-76 (antibody, V domains shown, human IgG1) VH: not shown VL: DIVMTQSPDSLAVSLGERATINCKSSQSVLYSSNNKNYLAWYQQKPGQAPRLLIYGASSRATGIPDRFSGSGSGTDFTLTISRLEPEDFAVYYCQQDYNSPLTFGGGTKVEIK | 13.5 | 654 | no binding (tested: 100 nM) | 3.01 | 87.7 | 455 | 185 | 85.5 |  | 92.4 | 43 | 85.5 |

Now those with a lower Kd [1], led by results:

| Kd [1] [nM] | Monocyte MFI [2] | binding result [3] | Kd [4] [nM] | Percent RBC Binding to CD33 [5] [%] | Macrophage MFI [6] | T cell MFI [7] | Percent CD33 Surface Expression, DC % CD33 [8] [%] | Percent CD33 Surface Expression, Macrophage % CD33 [8] [%] | Percent CD33 Surface Expression, Monocyte % CD33 [8] [%] | DC MFI [9] | Percent RBC Binding to CD33 [10] [%] | Binder |
| --- | --- | --- | --- | --- | --- | --- | --- | --- | --- | --- | --- | --- |
| 5.74 | 987 | no binding (tested: 100 nM) | 1.51 | 6.8 | 1260 | 329 | 18.5 | 41.3 | 35.4 | 151 | 17.2 | C-90 (antibody, V domains shown, human IgG1) VH: EVQLVESGGGLVQPGGSLRLSCAASGFTFSSYWMSWVRQAPGKGLEWVANINQDGSEKYYVDSVKGRFTISRDNAKNSLYLQMNSLRAEDTAVYYCAREAGAVTGYRWFDPWGQGTLVTVSS VL: DIQMTQSPSSLSASVGDRVTITCRASQSISSYLNWYQQKPGKAPKLLIYGASSLQSGVPSRFSGSGSGTDFTLTISSLQPEDFATYYCQQQYLTPLTFGGGTKVEIK |
| 4.88 | 1120 | no binding (tested: 100 nM) | 1.16 | 10.5 | 1420 | 109 | 19.6 | 41.2 | 25.3 | 203 | 20.6 | C-89 (antibody, V domains shown, human IgG1) VH: QLQLQESGPGLVKPSETLSLTCTVSGGSISSSSYYWGWIRQPPGKGLEWIGSIYYSGSTYYNPSLKSRVTISVDTSKNQFSLKLSSVTAADTAVYYCAREGPRFDPWGQGTLVTVSS VL: not shown |
| 4.63 | 686 | no binding (tested: 100 nM) | 1.04 | 67 | 778 | 399 | 88.7 |  | 85.9 | 46 | 72.6 | C-75 (antibody, V domains shown, human IgG1) VH: EVQLLESGGGLVQPGGSLRLSCAASGFTFSSYAMSWVRQAPGKGLEWVSAISASGGSTYYADSVKGRFTISRDNSKNTLYLQMNSLRAEDTAVYYCARLHMTGTASSGMDVWGQGTTVTVSS VL: DIVMTQSPDSLAVSLGERATINCKSSQSVLYSSNNKNYLAWYQQKPGQAPRLLIYGASSRATGIPDRFSGSGSGTDFTLTISRLEPEDFAVYYCQQDYSSPLTFGGGTKVEIK |
| 3.29 | 87 | no binding (tested: 100 nM) | 1.01 | 108 | 626 | 52.5 | 66.9 | 97 | 96.5 | 814 | 122 | C-7 (antibody, V domains shown, human IgG1) VH: not shown VL: DIQMTQSPSTLSASVGDRVTITCRASQSISSWLAWYQQKPGKAPKLLIYDASSLESGVPSRFSGSGSGTEFTLTISSLQPDDFATYYCQQARSYPPTFGGGTKVEIK |
| 2.7 | 957 | no binding (tested: 100 nM) | 0.734 | 10.9 | 1200 | 204 | 18.6 | 41.4 | 28.7 | 178 | 39.4 | C-88 (antibody, V domains shown, human IgG1) VH: QLQLQESGPGLVKPSETLSLTCTVSGGSISSSSYYWGWIRQPPGKGLEWIGSIYYSGSTYYNPSLKSRVTISVDTSKNQFSLKLSSVTAADTAVYYCARLPIYYDSSGYFDYHGMDVWGQGTTVTVSS VL: EIVLTQSPATLSLSPGERATLSCRASQSVSSYLAWYQQKPGQAPRLLIYDASNRATGIPARFSGSGSGTDFTLTISSLEPEDFAVYYCQQHANHPPTFGGGTKVEIK |
